Patent publication EP0983376B1, “SCREENING ASSAYS FOR AGENTS THAT ALTER INHIBITOR OF APOPTOSIS (IAP) PROTEIN REGULATION OF CASPASE ACTIVITY” (The Burnham Institute, priority 1997, dated 1998)
One block for each molecule: values may come before it.

B4: purified recombinant active caspase-3 (His6-tagged) (enzyme)
chain 1: SGISLDNSYKMDYPEMGLCIIINNKNFHKSTGMTSRSGTDVDAANLRETFRNLKYEVRNKNDLTREEIVELMRDVSKEDHSKRSSFVCVLLSHGEEGIIFGTNGPVDLKKITNFFRGDRCRSLTGKPKLFIIQACRGTELDCGIETD
chain 2: SGVDDDMACHKIPVEADFLYAYSTAPGYYSWRNSKDGSWFIQSLCAMLKQYADKLEFMHILTRVNRKVATEFESFSFDATFHAKKQIPCIVSMLTKELYFYH
notes: domain: large subunit;domain: small subunit; also called His6-caspase-3; CPP32
B6: GST-c-IAP-1(BIR) (other, human, UniProt Q13490 1-350, looked up)
chain: MHKTASQRLFPGPSYQNIKSIMEDSTILSDWTNSNKQKMKYDFSCELYRMSTYSTFPAGVPVSERSLARAGFYYTGVNDKVKCFCCGLMLDNWKLGDSPIQKHKQLYPSCSFIQNLVSASLGSTSKNTSPMRNSFAHSLSPTLEHSSLFSGSYSSLSPNPLNSRAVEDISSSRTNPYSYAMSTEEARFLTYHMWPLTFLSPSELARAGFYYIGPGDRVACFACGGKLSNWEPKDDAMSEHRRHFPNCPFLENSLETLRFSISNLSMQTHAARMRTFMYWPSSVPVQPEQLASAGFYYVGRNDDVKCFCCDGGLRCWESGDDPWVEHAKWFPRCEFLIRMKGQEFVDEIQG
notes: range 1-350; not shown: glutathione S-transferase encoded by vector pGEX4T; vector linker not described

What was measured:
pro-caspase-9 processing = assay: Cytochrome c-induced processing of pro-caspase-9 in 293 cell cytosolic extracts; type: biochemical; conditions: 10 µM cytochrome c, 1 mM dATP, 30 °C, 30 minutes
Procedure: For the results shown in Figure 4, in vitro translated ^35S-labeled pro-caspase-9 was added to cytosolic extracts from 293 cells, and subsequently incubated for 30 min at 30 °C with (lanes 2-6) or without (lane 1) 10 µM cytochrome c and 1 mM dATP in the presence or absence of 0.2 µM GST-IAP proteins or a GST control protein. Cytochrome c induced processing of pro-caspase-9 was subsequently monitored by SDS-PAGE and autoradiography.
Pro-caspase-9 inhibition by Ac-DEVD-fmk, zVAD-fmk and XIAP was compared as follows. In vitro translated ^35S-labeled pro-caspase-9 was added to cytosolic extracts from 293 cells containing 10 µM cytochrome c and 1 mM dATP. Samples were incubated at 30 °C for 30 minutes in the presence of the indicated concentrations of inhibitors. Proteins were separated on SDS-PAGE gels, dried directly, and exposed to film.

293T cells = assay: Bax-induced apoptosis and caspase-3 processing in transfected 293T cells; type: cell-based, Human; conditions: PI staining, 24 hr; Bax expressing cells treated with 50 µM inhibitor (Bax alone about 25%)
Procedure: N-benzyloxycarbonyl-Val-Ala-Asp fluoromethylketone (zVAD-fmk; 50 µM) (Bachem California; Torrance CA) was added immediately after transfection of the Bax plasmid. Transfection efficiency was uniformly 80-90%, as determined by X-Gal staining following cotransfection with pCMV-βGal.
Cells were maintained in culture for 24 hr, then floating and attached cells were harvested and an aliquot was removed and the percent of dead cells was determined by either trypan blue or propidium iodide (PI) dye exclusion assay. A second aliquot was used to assess the percentage of apoptotic cells with subdiploid DNA content by FACS analysis of PI stained, ethanol fixed cells. The remaining cell pellets were lysed in 10 mM HEPES (pH 7.5), 142 mM KCl, 1 mM EGTA, 1 mM DTT, 0.2% NP-40, 0.1 mM PMSF and used for immunoblot analysis or for protease assays.

[1] = molecular target: purified recombinant active caspase-7 (His6-tagged) (UniProt P55210); assay: progress curves of DEVD-AFC hydrolysis by caspase-7 (150 pM) with 0.025 to 1.5 µM IAP
[2] = molecular target: B4; assay: progress curves of DEVD-AFC hydrolysis by caspase-3 (7 pM) with 0.025 to 1.5 µM IAP
GST-c-IAP-2 [3] = molecular target: T1, GST-c-IAP-2 (human, UniProt Q13489 1-604); assay: opening sentence of Example VI
T1 construct: domain: full length; also called HIAP-1; hMIHC; not shown: glutathione S-transferase encoded by vector pGEX4T; vector linker not described

GST-c-IAP-1 [4] = molecular target: T2, GST-c-IAP-1 (human, UniProt Q13490 1-618); assay: opening sentence of Example VI
T2 construct: domain: full length; also called HIAP-2; hMIHB; not shown: glutathione S-transferase encoded by vector pGEX4T; vector linker not described

myc-tagged c-IAP-1 = molecular target: T3, myc-tagged c-IAP-1 (human, UniProt Q13490 1-618); assay: legend of Figure 8: anti-myc immunoprecipitation, anti-FLAG immunoblot
T3 construct: also called pcDNA3myc-c-IAP-1; pcDNA3-myc-IAP-1; not shown: Myc tag of pcDNA3myc

myc-tagged c-IAP-2 = molecular target: T4, myc-tagged c-IAP-2 (human, UniProt Q13489 1-604); assay: as above
T4 construct: also called pcDNA3myc-c-IAP-2; pcDNA3-myc-c-IAP-2; not shown: Myc tag of pcDNA3myc

GST-c-IAP-1(BIR) = molecular target: B6; assay: glutathione-SEPHAROSE affinity chromatography
GST-c-IAP-2 [5] = molecular target: T1, GST-c-IAP-2; assay: opening sentence of Example IV
GST-c-IAP-1 [6] = molecular target: T2, GST-c-IAP-1; assay: opening sentence of Example IV
GST-c-IAP-2 [7] = molecular target: T1, GST-c-IAP-2; assay: GST-IAP added to 293 extracts previously treated with cytochrome c, recovered on glutathione-Sepharose, anti-caspase-3 immunoblot
GST-c-IAP-1 [8] = molecular target: T2, GST-c-IAP-1; assay: as above
[9] = molecular target: B4; assay: GST pull-down on glutathione-SEPHAROSE, immunoblot

Molecule: N-benzyloxycarbonyl-Val-Ala-Asp fluoromethylketone [zVAD-fmk]
concentration to completely abolish processing of pro-caspase-9 (pro-caspase-9 processing): at least 5 µM
apoptotic cells (293T cells): about 5%

Molecule: GST-c-IAP-2 (from UniProt Q13489 1-604)
Ki [1]: 26 nM

Molecule: B4
binding result (GST-c-IAP-1(BIR)): binds
binding result (GST-c-IAP-2 [5]): binds
binding result (GST-c-IAP-1 [6]): binds

Molecule: B6
Ki [2]: 330 nM
Ki [1]: 160 nM

Now from value to molecule:

Ki [2]: 260 nM
Ki [1]: 238 nM
B1: GST-c-IAP-2(BIR) (other, human, UniProt Q13489 1-335, looked up)
chain: MNIVENSIFLSNLMKSANTFELKYDLSCELYRMSTYSTFPAGVPVSERSLARAGFYYTGVNDKVKCFCCGLMLDNWKRGDSPTEKHKKLYPSCRFVQSLNSVNNLEATSQPTFPSSVTNSTHSLLPGTENSGYFRGSYSNSPSNPVNSRANQDFSALMRSSYHCAMNNENARLLTFQTWPLTFLSPTDLAKAGFYYIGPGDRVACFACGGKLSNWEPKDNAMSEHLRHFPKCPFIENQLQDTSRYTVSNLSMQTHAARFKTFFNWPSSVLVNPEQLASAGFYYVGNSDDVKCFCCDGGLRCWESGDDPWVQHAKWFPRCEYLIRIKGQEFIRQVQ
notes: range 1-335; not shown: glutathione S-transferase encoded by vector pGEX4T; vector linker not described

binding result (GST-c-IAP-2 [3]): binds
binding result (GST-c-IAP-1 [4]): binds
B2: in vitro translated 35S-labeled pro-caspase-9 (enzyme, UniProt P55211 1-416, looked up)
chain: MDEADRRLLRRCRLRLVEELQVDQLWDALLSRELFRPHMIEDIQRAGSGSRRDQARQLIIDLETRGSQALPLFISCLEDTGQDMLASFLRTNRQAAKLSKPTLENLTPVVLRPEIRKPEVLRPETPRPVDIGSGGFGDVGALESLRGNADLAYILSMEPCGHCLIINNVNFCRESGLRTRTGSNIDCEKLRRRFSSLHFMVEVKGDLTAKKMVLALLELAQQDHGALDCCVVVILSHGCQASHLQFPGAVYGTDGCPVSVEKIVNIFNGTSCPSLGGKPKLFFIQACGGEQKDHGFEVASTSPEDESPGSNPEPDATPFQEGLRTFDQLDAISSLPTPSDIFVSYSTFPGFVSWRDPKSGSWYVETLDDIFEQWAHSEDLQSLLLRVANAVSVKGIYKQMPGCFNFLRKKLFFKTS
modifications: 35S-L-methionine labeled
notes: domain: zymogen; also called zymogen of caspase-9; Mch6

binding result (myc-tagged c-IAP-1): binds
binding result (myc-tagged c-IAP-2): binds
B3: FLAG tagged pro-caspase-9 (enzyme, UniProt P55211 1-416, looked up, not shown: small tags and cut ends)
chain: MDEADRRLLRRCRLRLVEELQVDQLWDALLSRELFRPHMIEDIQRAGSGSRRDQARQLIIDLETRGSQALPLFISCLEDTGQDMLASFLRTNRQAAKLSKPTLENLTPVVLRPEIRKPEVLRPETPRPVDIGSGGFGDVGALESLRGNADLAYILSMEPCGHCLIINNVNFCRESGLRTRTGSNIDCEKLRRRFSSLHFMVEVKGDLTAKKMVLALLELAQQDHGALDCCVVVILSHGCQASHLQFPGAVYGTDGCPVSVEKIVNIFNGTSCPSLGGKPKLFFIQACGGEQKDHGFEVASTSPEDESPGSNPEPDATPFQEGLRTFDQLDAISSLPTPSDIFVSYSTFPGFVSWRDPKSGSWYVETLDDIFEQWAHSEDLQSLLLRVANAVSVKGIYKQMPGCFNFLRKKLFFKTS
notes: domain: zymogen; also called Flag-pro-caspase-9; FLAG-caspase-9

binding result (GST-c-IAP-2 [7]): binds
binding result (GST-c-IAP-1 [8]): binds
B5: processed (active) caspase-3 of 293 cell cytosolic extracts treated with cytochrome c and dATP (enzyme, human)
chain 1: SGISLDNSYKMDYPEMGLCIIINNKNFHKSTGMTSRSGTDVDAANLRETFRNLKYEVRNKNDLTREEIVELMRDVSKEDHSKRSSFVCVLLSHGEEGIIFGTNGPVDLKKITNFFRGDRCRSLTGKPKLFIIQACRGTELDCGIETD
chain 2: SGVDDDMACHKIPVEADFLYAYSTAPGYYSWRNSKDGSWFIQSLCAMLKQYADKLEFMHILTRVNRKVATEFESFSFDATFHAKKQIPCIVSMLTKELYFYH
notes: domain: large subunit;domain: small subunit; Endogenous protein of the extract, detected with anti-caspase-3 antiserum that sees only the zymogen and the large subunit; also called processed caspase-3; band 3

binding result [9]: no binding
B7: GST-CD40 cytosolic domain (other, UniProt P25942 216-277, looked up)
chain: KKVAKKPTNKAPHPKQEPQEINFPDDLPGSNTAAPVQETLHGCQPVTQEDGKESRISVQERQ
notes: domain: cytosolic domain; Control protein; not shown: glutathione S-transferase
